The values that follow are results of earlier work, collected in publication PMC8044391.

The target in this data set is ICAM-1 (Homo sapiens) (UniProt P05362).
ICAM-1 (Homo sapiens), sequence (P05362 28-480): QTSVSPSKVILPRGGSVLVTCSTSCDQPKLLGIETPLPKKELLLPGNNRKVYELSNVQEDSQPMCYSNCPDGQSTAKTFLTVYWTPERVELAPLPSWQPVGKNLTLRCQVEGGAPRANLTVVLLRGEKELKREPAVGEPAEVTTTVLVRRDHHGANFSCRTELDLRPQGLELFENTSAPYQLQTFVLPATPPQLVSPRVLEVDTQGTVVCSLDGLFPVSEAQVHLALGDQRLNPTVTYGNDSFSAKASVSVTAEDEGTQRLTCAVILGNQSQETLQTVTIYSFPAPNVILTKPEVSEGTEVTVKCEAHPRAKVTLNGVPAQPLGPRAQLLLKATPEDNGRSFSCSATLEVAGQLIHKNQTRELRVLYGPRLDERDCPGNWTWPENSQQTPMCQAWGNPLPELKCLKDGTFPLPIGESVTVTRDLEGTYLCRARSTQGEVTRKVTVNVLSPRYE

integrin αLβ2, sequence (P20701 26-1090): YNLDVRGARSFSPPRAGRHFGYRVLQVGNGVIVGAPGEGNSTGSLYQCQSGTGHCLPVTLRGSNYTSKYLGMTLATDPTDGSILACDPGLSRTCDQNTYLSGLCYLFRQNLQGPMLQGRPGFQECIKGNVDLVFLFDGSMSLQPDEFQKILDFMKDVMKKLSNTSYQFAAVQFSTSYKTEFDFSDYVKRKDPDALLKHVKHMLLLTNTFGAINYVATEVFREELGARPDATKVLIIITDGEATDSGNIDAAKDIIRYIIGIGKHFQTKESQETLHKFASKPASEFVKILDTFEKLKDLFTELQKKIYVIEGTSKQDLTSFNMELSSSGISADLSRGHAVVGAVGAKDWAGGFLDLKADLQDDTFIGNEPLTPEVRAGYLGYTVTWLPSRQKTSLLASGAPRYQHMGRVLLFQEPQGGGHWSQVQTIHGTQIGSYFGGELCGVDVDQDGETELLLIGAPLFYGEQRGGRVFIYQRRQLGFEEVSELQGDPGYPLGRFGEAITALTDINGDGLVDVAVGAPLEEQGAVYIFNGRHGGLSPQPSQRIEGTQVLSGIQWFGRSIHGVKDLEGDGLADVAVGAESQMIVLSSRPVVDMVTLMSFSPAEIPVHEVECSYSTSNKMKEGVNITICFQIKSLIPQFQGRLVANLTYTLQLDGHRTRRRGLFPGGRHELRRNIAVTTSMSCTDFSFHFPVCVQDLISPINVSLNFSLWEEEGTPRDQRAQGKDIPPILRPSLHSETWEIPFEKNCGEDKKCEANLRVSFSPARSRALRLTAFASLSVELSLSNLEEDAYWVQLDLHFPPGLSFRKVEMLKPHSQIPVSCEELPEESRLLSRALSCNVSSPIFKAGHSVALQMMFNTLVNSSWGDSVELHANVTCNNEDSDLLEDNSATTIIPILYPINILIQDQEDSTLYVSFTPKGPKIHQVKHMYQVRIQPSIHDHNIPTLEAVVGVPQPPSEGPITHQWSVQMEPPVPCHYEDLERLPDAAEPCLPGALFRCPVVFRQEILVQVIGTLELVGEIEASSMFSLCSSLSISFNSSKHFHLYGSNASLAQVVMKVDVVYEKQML
integrin αLβ2, sequence (P05107 23-700, further chain): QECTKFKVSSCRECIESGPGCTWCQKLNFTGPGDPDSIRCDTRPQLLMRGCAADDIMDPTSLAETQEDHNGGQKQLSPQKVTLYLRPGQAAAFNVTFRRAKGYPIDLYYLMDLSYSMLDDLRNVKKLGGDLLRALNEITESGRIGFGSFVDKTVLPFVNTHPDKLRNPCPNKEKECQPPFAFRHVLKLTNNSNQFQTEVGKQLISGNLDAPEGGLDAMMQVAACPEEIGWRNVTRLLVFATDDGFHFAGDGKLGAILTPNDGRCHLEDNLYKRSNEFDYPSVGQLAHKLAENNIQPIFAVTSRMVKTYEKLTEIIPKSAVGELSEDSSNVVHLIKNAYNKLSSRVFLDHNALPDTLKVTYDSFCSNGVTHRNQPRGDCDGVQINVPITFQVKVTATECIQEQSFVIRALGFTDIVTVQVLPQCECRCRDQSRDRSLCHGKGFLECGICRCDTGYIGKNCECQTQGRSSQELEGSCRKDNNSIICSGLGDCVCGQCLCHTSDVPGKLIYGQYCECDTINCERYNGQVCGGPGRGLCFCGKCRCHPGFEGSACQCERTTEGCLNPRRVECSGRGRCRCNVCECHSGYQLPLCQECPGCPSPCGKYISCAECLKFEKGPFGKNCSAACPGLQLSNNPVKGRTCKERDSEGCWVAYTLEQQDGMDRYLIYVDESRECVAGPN

As for integrin αLβ2 (from UniProt P20701), the Kd is 26 µM.

The term Kd denotes the concentration at which binding is half-saturated.
